Data as given in patent US20150087527A1, “METHOD AND KIT FOR THE CLASSIFICATION AND PROGNOSIS OF TISSUE OR ORGAN FIBROSIS IN A REPARATIVE OR REACTIVE PROCESS” (VIVATECH, priority 2012, published 2015).

Columns and labels:
[1] = tested on: PI16 mRNA in NHDF (Normal Human Dermal Fibroblast); experiment: Timing of PI16 mRNA expression after TGFbeta treatment (RTqPCR); assay type: cell-based; settings: after 1 h of TGFbeta, FIG. 4A and B
Method: Quantitative real-time PCR (RT-qPCR) was done using 5 μL of 1:20 diluted cDNA on the LightCycler480 system (Roche) using Maxima SYBR Green qPCR Master Mix (Fermentas). Forward and reverse primers were designed by Eurofins (MWG, αSMA forward: […] (SEQ ID NO:1), αSMA reverse: […] (SEQ ID NO:2)) and a 100 μM stock was stored at −20° C. Forward and reverse primer pairs were used for each RT-qPCR reaction. The cycling conditions were as follows: an initial 95° C. for 10 minutes, followed by 45 cycles of 95° C. for 15 sec, 58° C. for 30 sec, 72° C. for 20 sec. LightCycler 480 SW 1.5 was used to evaluate the TM curves, to determine the Cp and to approximate the relative concentration for each amplification reaction.
NHDF (Normal Human Dermal Fibroblast) were treated with TGFbeta as described previously for different times (between 1 h and 96 h). After treatment mRNA were extracted and levels of PI16 mRNA were assessed by RTqPCR.

[2] = tested on: αSMA expression in NHDF; experiment: Ex vivo model for fibrosis or hypertrophic scar: αSMA expression by RT-qPCR and Western Blot; assay type: cell-based, human; settings: fibroblasts cultivated with TGF-β (10 ng/mL TGF-β1); FIGS. 1 and 2
Method: To study the myofibroblasts involved in generating hypertrophic or keloid scars, NHDF were cultivated on collagen coated culture plates in DMEM-F12 (Invitrogen), supplemented with 10% FCS (Invitrogen), 5 μg/mL of insulin and 1 ng/mL of b-FGF (PromoKine) and 10 ng/mL of TGF-β1 (Promocell), as TGF-β1 is known to induce the expression of αSMA in fibroblasts (Desmouliere A, Geinoz A, Gabbiani F, Gabbiani G (1993) Transforming growth factor-beta 1 induces alpha-smooth muscle actin expression in granulation tissue myofibroblasts and in quiescent and growing cultured fibroblasts. J Cell Biol, 1993 July, 122(1): 103-111). […]
This αSMA expression was assessed by RT-qPCR (mRNA levels) and by Western Blot (protein).
Total proteins were extracted by scratching the cells with lysis buffer (TRIS, NaCl, NP40, EDTA, IMDTT) and incubated 30 min in ice. […] Protein concentration was determined according to BCA method (Sigma). […] Signals were detected by ECL chemiluminescence using UptiLight HS WB Substrate (Uptima, Interchim). Bands were digitized with a scanner and the ratio between all bands density of the same blot was calculated by software (ImageJ 1.43u, 64-bit). […]
After four days of experiment, treated fibroblasts were detached with TRIzol Reagent (Invitrogen) and stored at −80° C. […] Total RNA was quantified on the NanoDrop 2000c Spectrophotometer (Thermo Scientific). […]

For “TGF-β: TGF-β1 (Promocell), known to induce the expression of αSMA in fibroblasts”, the “PI16 mRNA up regulation after TGFbeta treatment” value [1] was 3 × and the “αSMA expression (mRNA and protein)” value [2] was “high level”.
